Source: PMC7069958, “Multi-level and lineage-specific interactomes of the Hox transcription factor Ubx contribute to its functional specificity”

Assays:
[1] = target: T1, V5-Tin (UniProt P22711); experiment: EMSA; settings: 20 mM HEPES pH 7.9, 1.4 mM MgCl2, 1 mM ZnSO4, 40 mM KCl, 0.1 mM EDTA, 5% glycerol, 0.2 ug poly(dI-dC), 0.1 ug BSA, 10 mM DTT, 0.1% NP40, 30 ul, 20 min; gel 6% …
T1 sequence: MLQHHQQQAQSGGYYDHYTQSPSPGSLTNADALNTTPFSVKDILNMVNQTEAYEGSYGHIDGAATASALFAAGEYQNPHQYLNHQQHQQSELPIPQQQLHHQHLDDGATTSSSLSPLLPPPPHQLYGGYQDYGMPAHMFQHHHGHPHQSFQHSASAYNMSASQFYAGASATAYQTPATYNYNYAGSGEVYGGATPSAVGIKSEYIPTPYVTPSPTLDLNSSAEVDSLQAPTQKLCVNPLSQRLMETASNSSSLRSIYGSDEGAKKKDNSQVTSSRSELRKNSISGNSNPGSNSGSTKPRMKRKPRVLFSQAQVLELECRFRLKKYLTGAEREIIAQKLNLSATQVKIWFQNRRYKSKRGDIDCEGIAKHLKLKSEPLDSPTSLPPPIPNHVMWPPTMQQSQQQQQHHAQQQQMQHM

[2] = target: GST-Ubx^FL (full length) (Drosophila) (UniProt P83949); experiment: pull-down; GST or GST-Ubx fusion proteins in equal amounts with His-purified proteins; affinity buffer (20 mM HEPES, 10 uM ZnCl2, 0.1% Triton, 2 mM EDTA) with NaCl, 1 mM DTT, 0.1 mM PMSF; 2 h at 4 °C; western blot
Sequence of GST-Ubx^FL (full length) (Drosophila) (P83949 whole entry, the tested form may be a part): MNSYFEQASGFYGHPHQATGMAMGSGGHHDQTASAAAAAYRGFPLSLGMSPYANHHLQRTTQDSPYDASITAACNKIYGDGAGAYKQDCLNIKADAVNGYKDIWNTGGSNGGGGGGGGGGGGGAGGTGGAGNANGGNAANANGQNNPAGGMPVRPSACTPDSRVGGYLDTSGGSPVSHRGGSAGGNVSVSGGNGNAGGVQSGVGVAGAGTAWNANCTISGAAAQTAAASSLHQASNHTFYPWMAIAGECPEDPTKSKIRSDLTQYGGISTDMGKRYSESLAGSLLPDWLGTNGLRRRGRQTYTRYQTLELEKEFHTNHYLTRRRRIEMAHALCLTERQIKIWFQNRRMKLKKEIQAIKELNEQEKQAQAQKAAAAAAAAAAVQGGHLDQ

CAATCGCTGTAAATAAATAGGAGCCGCAGATCAAAGGCCTATCAATTAGCACCCATTTCGATTATGCTGCATGCTGCATATGCAGCACTTGCACTGCCTGCAATTCACACCCAATTAGTAATAAATTTGAATGCGCGCTGCAATTTGCCG (double strand) [dpp674 enhancer fragment F3 (150 bp)]
binding [1]: binds

B1: V5-Tin, His-purified (natural protein)
chain: MLQHHQQQAQSGGYYDHYTQSPSPGSLTNADALNTTPFSVKDILNMVNQTEAYEGSYGHIDGAATASALFAAGEYQNPHQYLNHQQHQQSELPIPQQQLHHQHLDDGATTSSSLSPLLPPPPHQLYGGYQDYGMPAHMFQHHHGHPHQSFQHSASAYNMSASQFYAGASATAYQTPATYNYNYAGSGEVYGGATPSAVGIKSEYIPTPYVTPSPTLDLNSSAEVDSLQAPTQKLCVNPLSQRLMETASNSSSLRSIYGSDEGAKKKDNSQVTSSRSELRKNSISGNSNPGSNSGSTKPRMKRKPRVLFSQAQVLELECRFRLKKYLTGAEREIIAQKLNLSATQVKIWFQNRRYKSKRGDIDCEGIAKHLKLKSEPLDSPTSLPPPIPNHVMWPPTMQQSQQQQQHHAQQQQMQHM
fold stronger than the Ubx-Exd interaction (signal in pull-down compared with input) [2]: > 10 fold
